Experimental findings from paper doi:10.1101/2021.08.09.455701 (bioRxiv, 2021) are described below.

Series [1] deals with RNase J (His-tagged, wild type) (Helicobacter pylori) (UniProt P56185). The series is described as follows: AUC.
The target of series [2] is RNase J D185A (His-tagged) (Helicobacter pylori) (UniProt P56185). The series is described as follows: AUC.
The target of series [3] is RNase J K649A (His-tagged) (Helicobacter pylori) (UniProt P56185). The series is described as follows: AUC.
Series [4] concerns the target RNase J K649Q (His-tagged) (Helicobacter pylori) (UniProt P56185). The series is described as follows: AUC.
Series [5] concerns the molecule itself. Put plainly: crystal structure.

For the molecule “RNase J (His-tagged, wild type) (from UniProt P56185 1-689) (enzyme)”, in series [1], the percent of the protein as dimer was found to be 40%, the percent of the protein as monomer was determined as 60% and the stoichiometry N worked out at 2.

In the case of “RNase J D185A (His-tagged) (from UniProt P56185 1-689) (enzyme)”, the stoichiometry N in series [2] is 2.

As to “RNase J K649A (His-tagged) (from UniProt P56185 1-689) (enzyme)”, the stoichiometry N in series [3] turned out to be 2.

Regarding “RNase J K649Q (His-tagged) (from UniProt P56185 1-689) (enzyme)”, the stoichiometry N in series [4] stood at 2.

Regarding “RhpA (His-tagged) (from UniProt O25029 1-492) (enzyme)”, the stoichiometry N in series [1] was 1 RNase J:RhpA.

B1: RNase J residues 139-691 (crystallised construct) (domain or fragment, H. pylori strain 26695, UniProt P56185 137-689, looked up)
chain: SKASVKITPLGGLGEIGGNMMVIETPKSAIVIDAGMSFPKEGLFGVDILIPDFSYLHQIKDKIAGIIITHAHEDHIGATPYLFKELQFPLYGTPLSLGLIGSKFDEHGLKKYRSYFKIVEKRCPISVGEFIIEWIHITHSIIDSSALAIQTKAGTIIHTGDFKIDHTPVDNLPTDLYRLAHYGEKGVMLLLSDSTNSHKSGTTPSESTIAPAFDTLFKEAQGRVIMSTFSSNIHRVYQAIQYGIKYNRKIAVIGRSMEKNLDIARELGYIHLPYQSFIEANEVAKYPDNEILIVTTGSQGETMSALYRMATDEHRHISIKPNDLVIISAKAIPGNEASVSAVLNFLIKKEAKVAYQEFDNIHVSGHAAQEEQKLMLRLIKPKFFLPVHGEYNHVARHKQTAISCGVPEKNIYLMEDGDQVEVGPAFIKKVGTIKSGKSYVDNQSNLSIDTSIVQQREEVASAGVFVATIFVNKNKQALLESSQFSSLGLVGFKDEKPLIKEIQGGLEVLLKSSNAEILNNPKKLEDHTRNFIRKALFKKFRKYPAIICHAHSF
On to B1, for which the binding result in series [5] is reported as “binds”.
